Experimental data taken from article PMC2739136.

What was measured:
[1] = target: T1, MBP-TraR A157V, P33905; test: pull-down
T1 chain: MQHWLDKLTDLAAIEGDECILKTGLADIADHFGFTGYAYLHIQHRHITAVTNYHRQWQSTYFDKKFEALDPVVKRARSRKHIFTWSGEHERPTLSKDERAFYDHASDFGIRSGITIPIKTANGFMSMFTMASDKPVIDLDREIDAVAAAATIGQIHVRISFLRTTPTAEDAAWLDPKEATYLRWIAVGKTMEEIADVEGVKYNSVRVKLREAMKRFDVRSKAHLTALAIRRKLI

[2] = target: T2, MBP-TraR G123R, P33905; test: pull-down
T2 chain: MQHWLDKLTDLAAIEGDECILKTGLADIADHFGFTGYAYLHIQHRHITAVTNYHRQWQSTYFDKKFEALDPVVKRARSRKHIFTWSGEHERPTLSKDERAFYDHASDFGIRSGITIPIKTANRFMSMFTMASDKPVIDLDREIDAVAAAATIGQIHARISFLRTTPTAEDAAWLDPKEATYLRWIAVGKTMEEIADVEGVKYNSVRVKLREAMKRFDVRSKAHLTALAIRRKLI

B1: native TraR (wild type) (protein)
chain: MQHWLDKLTDLAAIEGDECILKTGLADIADHFGFTGYAYLHIQHRHITAVTNYHRQWQSTYFDKKFEALDPVVKRARSRKHIFTWSGEHERPTLSKDERAFYDHASDFGIRSGITIPIKTANGFMSMFTMASDKPVIDLDREIDAVAAAATIGQIHARISFLRTTPTAEDAAWLDPKEATYLRWIAVGKTMEEIADVEGVKYNSVRVKLREAMKRFDVRSKAHLTALAIRRKLI
heterodimer formation (% of wild type) (% of wild type) [1]: 50 | heterodimer formation (% of wild type) (% of wild type) [2]: 49
